In test [1] the target is T1, human PVR (SPR of the humanized variants, Example 5) (human, UniProt P15151 21-343).
T1 sequence: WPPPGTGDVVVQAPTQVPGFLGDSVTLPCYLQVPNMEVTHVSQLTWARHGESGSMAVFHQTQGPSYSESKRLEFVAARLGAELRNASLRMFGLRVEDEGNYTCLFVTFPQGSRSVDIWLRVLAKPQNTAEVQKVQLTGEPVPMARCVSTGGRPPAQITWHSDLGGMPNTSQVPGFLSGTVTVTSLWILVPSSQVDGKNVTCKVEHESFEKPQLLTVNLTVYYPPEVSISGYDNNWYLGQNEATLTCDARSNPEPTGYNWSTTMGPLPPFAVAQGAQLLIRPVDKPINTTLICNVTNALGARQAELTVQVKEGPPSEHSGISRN
Briefly: SPR. On the technique in general: In SPR one partner is held on a chip, and binding of the other changes the refractive index at the surface.

The target of test [2] is T1, human PVR (SPR of the humanized …). The test is described as follows: SPR; relative to N56E VH0/Vκ0.
Test [3] deals with human poliovirus receptor (PVR, CD155) expressed on cells (human) (UniProt P15151). Briefly: flow cytometry, binding to PVR-expressing HEK 293 cells. (In general: In flow cytometry, cells or beads pass a laser one at a time.)
Test [4] shares this target. Briefly: flow cytometry, binding to PVR-expressing HEK 293 cells; relative to N56E VH0/Vκ0.
Test [5] concerns the target T2, PVR conjugated to Histidine tag (PVR-HIS, Sino Cat. no. 10109-H08H) (Homo sapiens (Human), UniProt P15151 21-343).
T2 construct: Bought reagent; also called PVR-HIS tagged
T2 sequence: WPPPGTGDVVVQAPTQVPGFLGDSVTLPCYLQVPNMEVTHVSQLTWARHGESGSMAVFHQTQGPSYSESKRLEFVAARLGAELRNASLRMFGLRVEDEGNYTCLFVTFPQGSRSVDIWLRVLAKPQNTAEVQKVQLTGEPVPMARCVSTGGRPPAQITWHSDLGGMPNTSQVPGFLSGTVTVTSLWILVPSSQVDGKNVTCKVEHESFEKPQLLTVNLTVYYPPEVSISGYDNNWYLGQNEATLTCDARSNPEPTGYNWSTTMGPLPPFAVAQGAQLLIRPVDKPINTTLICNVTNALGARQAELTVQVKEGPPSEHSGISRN
Briefly: SPR (Biacore T200); KD divided by the KD of VH0/Vκ0 WT. How it is done: FIGS. 1A-1B. Affinity and competition assays of N56 substitutions. FIG. 1A. […] Biacore assay showing relative and absolute affinity of the N56 substitutions (hIgG4 variants) to PVR-HIS tagged (Sino Cat. no. 10109-H08H). Affinity shift of >25% were considered significant.
(§1) Seven chimeric variants were generated by introducing a point mutation at residue asparagine N56. […] Binding was tested for the analyte PVR conjugated to Histidine tag (PVR-HIS, Sino Cat. no. 10109-H08H). Dilution range: Five point two-fold dilution from 50 nM to 3.125 nM. Conditions used: Instrument: Biacore T200 (serial no. 1909913) running Biacore T200 Evaluation Software V2.0.1. Running buffer: HBS-P+, 300 mM NaCl, 1 mg/ml BSA. Flow rate: […]. Association: 350 s, Dissociation: 800 s. Regeneration: 10 mM glycine pH 1.5. Analysis: 1:1 binding.

Test [6] addresses T3, chlorocebus (African green monkey) PVR expressed on Vero cells (chlorocebus (African green monkey), UniProt P32506 21-417).
T3 construct: whole, on cells; also called chlorocebus PVR
T3 sequence (looked up): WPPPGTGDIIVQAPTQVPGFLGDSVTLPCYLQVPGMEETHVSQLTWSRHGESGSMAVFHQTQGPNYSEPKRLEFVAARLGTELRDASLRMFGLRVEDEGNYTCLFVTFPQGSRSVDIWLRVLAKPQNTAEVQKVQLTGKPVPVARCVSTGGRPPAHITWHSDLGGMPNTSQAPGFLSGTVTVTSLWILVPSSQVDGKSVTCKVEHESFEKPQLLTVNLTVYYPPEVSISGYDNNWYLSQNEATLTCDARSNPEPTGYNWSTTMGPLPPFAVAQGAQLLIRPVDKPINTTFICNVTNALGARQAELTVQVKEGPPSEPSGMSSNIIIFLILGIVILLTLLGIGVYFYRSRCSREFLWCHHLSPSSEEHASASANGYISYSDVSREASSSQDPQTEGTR
The test is described as follows: flow cytometry, 10 ug/ml antibody on Vero cells; MFI divided by the MFI of K0. As for the experimental part:
FIGS. 2A-2B. […] To assess maximal binding, saturating dose (10 ug/ml) of the N56 variant monoclonal antibodies (shown at the X axis) were used to stain PVR-expressing cells, and mean fluorescence intensity (MFI) values were determined by FACS analysis. […] (FIG. 2A) NCI-H1975 (human lung) cells and (FIG. 2B) Vero (African green monkey kidney) cells. Affinity shifts of >25% were considered significant.
The binding of the N56 substitution variant antibodies to cell bound PVR of human (protein id: Q92692) and chlorocebus (African green monkey, protein id: UniProtKB—P32506) was examined. FIG. 2A depicts the relative binding of all variants, which were added in saturating concentration (10 ug/ml), to NCI-H1975 cells expressing human PVR. FIG. 2B depicts the relative binding of all variants, which were added in saturating concentration (10 ug/ml), to Vero cells expressing chlorocebus PVR. […] Cell binding of the Abs was analyzed by FACS.

In test [7] the target is T2, PVR conjugated to Histidine tag …. The test is described as follows: SPR (Biacore T200), antibody captured on Protein A chip, PVR-HIS as analyte, 1:1 binding. As for the experimental part: as §1

B1: humanized 5B9 variant VH5/VK3 (antibody, V domains shown)
VH: QVQLVQSGAEVKKPGASVKVSCKATGYTFSNYWIEWVRQAPGQGLEWMGEIFPGSGRINFNEKFKGRVTFTADTSISTAYMELSRLRSDDTAVYYCARTKIYGNSFDYWGQGTLVTVSS
VL: DIQMTQSPSSLSASVGDRVTITCRASQDVGTAVVWYQQKPGKAPKLLIYWASSRHEGVPSRFSGSGSGTDFTLTISSLQPEDFATYFCQQYSRYPLTFGQGTKLEIK
B1 yielded a Kd in test [1] of 7.41 nM. For the same molecule, the “Relative KD” value in test [2] was 1.34. The same molecule showed an EC50 in test [3] of 0.57 nM. This molecule came in with a Relative EC50 in test [4] of 0.72.

B2: chimeric anti-PVR antibody 5B9 wild type, IgG4 (S241P), VH0/VK0 (antibody, V domains shown)
VH: QVQLQQSGAELMKPGASVKISCKATGYTFSNYWIEWIKQRPGHGLEWIGEIFPGSGRINFNEKFKGKATFTADTSSDTTYMQLSSLTSADSAVYYCARTKIYGNSFDYWGQGTTLTVSP
VL: DIMMTQSHKFMSTSVGDRVNITCKASQDVGTAVVWYQQKPGQSPKLLIYWASSRHNGVPDRFTGSGSGTDFTLTISNVQSEDLSDYFCQQYSRYPLTFGAGTKLELK
notes: Mouse/human chimeric antibody with human IgG4 (S241P) constant region; also called WT; parental N56 variant (VH0VK0)
On to B2, for which, in test [5], the “Relative KD” value worked out at 1. In test [6], the “Fold change MFI” value was found to be 1. In test [7], this molecule gave a dissociation constant Kd of 5.12 nM, a dissociation rate constant (koff) of 0.000715 s⁻¹ and a kon of 140000 M⁻¹ s⁻¹.

B3: VH0/Vκ0 Ala56 (antibody, V domains shown)
VH: QVQLQQSGAELMKPGASVKISCKATGYTFSNYWIEWIKQRPGHGLEWIGEIFPGSGRINFNEKFKGKATFTADTSSDTTYMQLSSLTSADSAVYYCARTKIYGNSFDYWGQGTTLTVSP
VL: DIMMTQSHKFMSTSVGDRVNITCKASQDVGTAVVWYQQKPGQSPKLLIYWASSRHAGVPDRFTGSGSGTDFTLTISNVQSEDLSDYFCQQYSRYPLTFGAGTKLELK
notes: chimeric 5B9 N56 substitution variant; also called N56A
Turning to B3, the “Relative KD” value in test [5] came to 0.89. For the same molecule, the “Fold change MFI” value in test [6] was 1.2. In test [7], binding was put at a Kd of 4.57 nM, the koff is 0.000701 s⁻¹ and the association rate constant (kon) is 154000 M⁻¹ s⁻¹.

B4: VH0/Vκ0 Pro56 (antibody, V domains shown)
VH: QVQLQQSGAELMKPGASVKISCKATGYTFSNYWIEWIKQRPGHGLEWIGEIFPGSGRINFNEKFKGKATFTADTSSDTTYMQLSSLTSADSAVYYCARTKIYGNSFDYWGQGTTLTVSP
VL: DIMMTQSHKFMSTSVGDRVNITCKASQDVGTAVVWYQQKPGQSPKLLIYWASSRHPGVPDRFTGSGSGTDFTLTISNVQSEDLSDYFCQQYSRYPLTFGAGTKLELK
notes: chimeric 5B9 N56 substitution variant; also called N56P
Regarding B4, in test [5], the “Relative KD” value was determined as 1.48. Further, in test [7], binding was put at a Kd of 7.58 nM, the dissociation rate constant (koff) is 0.00105 s⁻¹ and the kon was 138000 M⁻¹ s⁻¹.

B5: chimeric 5B9 N56E variant, IgG4(S241P) N56E_VH0/VK0 (antibody, name in Kabat numbering, V domains shown)
VH: QVQLQQSGAELMKPGASVKISCKATGYTFSNYWIEWIKQRPGHGLEWIGEIFPGSGRINFNEKFKGKATFTADTSSDTTYMQLSSLTSADSAVYYCARTKIYGNSFDYWGQGTTLTVSP
VL: DIMMTQSHKFMSTSVGDRVNITCKASQDVGTAVVWYQQKPGQSPKLLIYWASSRHEGVPDRFTGSGSGTDFTLTISNVQSEDLSDYFCQQYSRYPLTFGAGTKLELK
notes: Human IgG4 (S241P) constant region; also called chimeric N56E mutated parental antibody
On to B5, for which the equilibrium dissociation constant (Kd) in test [1] was 5.54 nM; in test [7], 3.55 nM. For the same molecule, the “Relative KD” value is 1 in test [2] and 0.69 in test [5]. Besides, the 50% effective concentration (EC50) in test [3] was found to be 0.79 nM. For the same molecule, the “Fold change MFI” value in test [6] came out at 1.31. The koff in test [7] was determined as 0.000653 s⁻¹. In test [7], this molecule registered a kon of 184000 M⁻¹ s⁻¹.

B6: chimeric 5B9 N56D variant, IgG4 (S241P) (antibody, name in Kabat numbering, V domains shown)
VH: QVQLQQSGAELMKPGASVKISCKATGYTFSNYWIEWIKQRPGHGLEWIGEIFPGSGRINFNEKFKGKATFTADTSSDTTYMQLSSLTSADSAVYYCARTKIYGNSFDYWGQGTTLTVSP
VL: DIMMTQSHKFMSTSVGDRVNITCKASQDVGTAVVWYQQKPGQSPKLLIYWASSRHDGVPDRFTGSGSGTDFTLTISNVQSEDLSDYFCQQYSRYPLTFGAGTKLELK
notes: Human IgG4 (S241P) constant region
Regarding B6, in test [5], the “Relative KD” value stood at 0.64. In addition, the “Fold change MFI” value in test [6] was 1.27. In addition, in test [7], the affinity, expressed as Kd, was 3.27 nM; the koff turned out to be 0.000637 s⁻¹; the kon came to 195000 M⁻¹ s⁻¹.

B7: VH0/Vκ0 Ser56 (antibody, V domains shown)
VH: QVQLQQSGAELMKPGASVKISCKATGYTFSNYWIEWIKQRPGHGLEWIGEIFPGSGRINFNEKFKGKATFTADTSSDTTYMQLSSLTSADSAVYYCARTKIYGNSFDYWGQGTTLTVSP
VL: DIMMTQSHKFMSTSVGDRVNITCKASQDVGTAVVWYQQKPGQSPKLLIYWASSRHSGVPDRFTGSGSGTDFTLTISNVQSEDLSDYFCQQYSRYPLTFGAGTKLELK
notes: chimeric 5B9 N56 substitution variant; also called N56S
As to B7, the “Relative KD” value in test [5] is 1.05. In addition, the “Fold change MFI” value in test [6] was found to be 0.73. In test [7], this molecule came in with a Kd of 4.61 nM, a koff of 0.000701 s⁻¹ and an on-rate constant (kon) of 152000 M⁻¹ s⁻¹.

B8: VH0/Vκ0 Thr56 (antibody, V domains shown)
VH: QVQLQQSGAELMKPGASVKISCKATGYTFSNYWIEWIKQRPGHGLEWIGEIFPGSGRINFNEKFKGKATFTADTSSDTTYMQLSSLTSADSAVYYCARTKIYGNSFDYWGQGTTLTVSP
VL: DIMMTQSHKFMSTSVGDRVNITCKASQDVGTAVVWYQQKPGQSPKLLIYWASSRHTGVPDRFTGSGSGTDFTLTISNVQSEDLSDYFCQQYSRYPLTFGAGTKLELK
notes: chimeric 5B9 N56 substitution variant; also called N56T
As to B8, the “Relative KD” value in test [5] is 0.86. In addition, the “Fold change MFI” value in test [6] came to 1.19. Further, in test [7], binding was put at a Kd of 4.4 nM, the dissociation rate constant (koff) stood at 0.000688 s⁻¹ and the kon is 156000 M⁻¹ s⁻¹.

The Kd is the free concentration of one partner at which half of the binding sites on the other are occupied at equilibrium, for simple one-to-one binding. High values mean weaker binding, low ones tighter binding. As a reminder, the EC50 is the concentration at which the effect is half-maximal. One may read the koff as a measure of how fast the partners let go of each other. Read a high koff as fast dissociation. As usually defined, the kon is the rate constant with which the complex forms. Higher therefore signals fast association.

For the origin of these results see patent publication US20260152568A1 (NECTIN THERAPEUTICS, published 2026).
